B1: CoDAH design C1 VH/C4 Vκ (antibody, V domains shown)
VH: QVQLQQSGPGLVKPSQTLSLTCTVSGFSLTNYGVHWVRQSPGKGLEWLGVIWSGGNTDYNTPFTSRLTISKDTSKNQVSLKLSSVTSNDTAVYYCARALTYYDYEFAYWGQGTLVTVSA
VL: DIVLTQSPVILSVSPGERVTFSCRASQSIGTNIHWYQQKPDQSPKLLIKYASESISGVPSRFSGSGSGTDFTLTINSVESEDIADYYCQQNNNWPTTFGQGTKLELKR
notes: Cross pair; Measured as full length IgG
B2: CoDAH design C4 VH/C2 Vκ (antibody, V domains shown)
VH: QVQLQQSGPGLVKPSQTLSLTCTVSGFSLTNYGVHWVRQSPGKGLEWLGVIWSGGNTDYNTPFTSRLTISKDNSKSQVFFKMNSLQSNDTAVYYCARALTYYDYEFAYWGQGTLVTVSA
VL: DIVLTQSPVFLSVTPGEKVTITCRASQSIGTNIHWYQQKPDQSPKLLIKYASESISGVPSRFSGSGSGTDFTLTINSVESEDIADYYCQQNNNWPTTFGAGTKLELKR
notes: as for B1
B3: CoDAH design C4 VH/C1 Vκ (antibody, V domains shown)
VH: QVQLQQSGPGLVKPSQTLSLTCTVSGFSLTNYGVHWVRQSPGKGLEWLGVIWSGGNTDYNTPFTSRLTISKDNSKSQVFFKMNSLQSNDTAVYYCARALTYYDYEFAYWGQGTLVTVSA
VL: DIVLTQSPDFQSVTPKEKVTITCRASQSIGTNIHWYQQKPDQSPKLLIKYASESISGVPSRFSGSGSGTDFTLTINSVESEDIADYYCQQNNNWPTTFGAGTKLELKR
notes: as for B1
B4: CoDAH design C1 VH/C2 Vκ (antibody, V domains shown)
VH: QVQLQQSGPGLVKPSQTLSLTCTVSGFSLTNYGVHWVRQSPGKGLEWLGVIWSGGNTDYNTPFTSRLTISKDTSKNQVSLKLSSVTSNDTAVYYCARALTYYDYEFAYWGQGTLVTVSA
VL: DIVLTQSPVFLSVTPGEKVTITCRASQSIGTNIHWYQQKPDQSPKLLIKYASESISGVPSRFSGSGSGTDFTLTINSVESEDIADYYCQQNNNWPTTFGAGTKLELKR
notes: as for B1
B5: CoDAH design C4 VH/C5 Vκ (antibody, V domains shown)
VH: QVQLQQSGPGLVKPSQTLSLTCTVSGFSLTNYGVHWVRQSPGKGLEWLGVIWSGGNTDYNTPFTSRLTISKDNSKSQVFFKMNSLQSNDTAVYYCARALTYYDYEFAYWGQGTLVTVSA
VL: EIVLTQSPVILSVSPGERVTFSCRASQSIGTNIHWYQQKTDQSPRLLIKYASESISGIPSRFSGSGSGTDFTLTINSVESEDIADYYCQQNNNWPTTFGQGTKLELKR
notes: as for B1
B6: CoDAH design C2 VH/C5 Vκ (antibody, V domains shown)
VH: QVQLQQSGPGLVKPSQTLSLTCTVSGFSLTNYGVHWVRQSPGKGLEWLGVIWSGGNTDYNTPFTSRLTISVDTSKNQVSLKLSSVTSNDTAVYYCARALTYYDYEFAYWGQGTLVTVSA
VL: EIVLTQSPVILSVSPGERVTFSCRASQSIGTNIHWYQQKTDQSPRLLIKYASESISGIPSRFSGSGSGTDFTLTINSVESEDIADYYCQQNNNWPTTFGQGTKLELKR
notes: as for B1
B7: CoDAH design C5 VH/C4 Vκ (antibody, V domains shown)
VH: QVQLQQSGPGLVKPSETLSITCTVSGFSLTNYGVHWVRQSPGKGLEWLGVIWSGGNTDYNTPFTSRLTINKDNSKSQVFFKMNSLQSNDTAVYYCARALTYYDYEFAYWGQGTLVTVSA
VL: DIVLTQSPVILSVSPGERVTFSCRASQSIGTNIHWYQQKPDQSPKLLIKYASESISGVPSRFSGSGSGTDFTLTINSVESEDIADYYCQQNNNWPTTFGQGTKLELKR
notes: as for B1
B8: CoDAH design C3 VH/C2 Vκ (antibody, V domains shown)
VH: QVQLQQSGPGLVKPSETLSLTCTVSGFSLTNYGVHWVRQSPGKGLEWLGVIWSGGNTDYNTPFTSRLTISVDTSKNQVSLKLSSVTSNDTAVYYCARALTYYDYEFAYWGQGTLVTVSA
VL: DIVLTQSPVFLSVTPGEKVTITCRASQSIGTNIHWYQQKPDQSPKLLIKYASESISGVPSRFSGSGSGTDFTLTINSVESEDIADYYCQQNNNWPTTFGAGTKLELKR
notes: as for B1
B9: CoDAH design C3 VH/C5 Vκ (antibody, V domains shown)
VH: QVQLQQSGPGLVKPSETLSLTCTVSGFSLTNYGVHWVRQSPGKGLEWLGVIWSGGNTDYNTPFTSRLTISVDTSKNQVSLKLSSVTSNDTAVYYCARALTYYDYEFAYWGQGTLVTVSA
VL: EIVLTQSPVILSVSPGERVTFSCRASQSIGTNIHWYQQKTDQSPRLLIKYASESISGIPSRFSGSGSGTDFTLTINSVESEDIADYYCQQNNNWPTTFGQGTKLELKR
notes: as for B1
B10: CoDAH design C2 VH/C4 Vκ (antibody, V domains shown)
VH: QVQLQQSGPGLVKPSQTLSLTCTVSGFSLTNYGVHWVRQSPGKGLEWLGVIWSGGNTDYNTPFTSRLTISVDTSKNQVSLKLSSVTSNDTAVYYCARALTYYDYEFAYWGQGTLVTVSA
VL: DIVLTQSPVILSVSPGERVTFSCRASQSIGTNIHWYQQKPDQSPKLLIKYASESISGVPSRFSGSGSGTDFTLTINSVESEDIADYYCQQNNNWPTTFGQGTKLELKR
notes: as for B1
B11: CoDAH design C2 VH/C2 Vκ (antibody, V domains shown)
VH: QVQLQQSGPGLVKPSQTLSLTCTVSGFSLTNYGVHWVRQSPGKGLEWLGVIWSGGNTDYNTPFTSRLTISVDTSKNQVSLKLSSVTSNDTAVYYCARALTYYDYEFAYWGQGTLVTVSA
VL: DIVLTQSPVFLSVTPGEKVTITCRASQSIGTNIHWYQQKPDQSPKLLIKYASESISGVPSRFSGSGSGTDFTLTINSVESEDIADYYCQQNNNWPTTFGAGTKLELKR
notes: Pareto optimal design; Measured as full length IgG
B12: CoDAH design C1 VH/C5 Vκ (antibody, V domains shown)
VH: QVQLQQSGPGLVKPSQTLSLTCTVSGFSLTNYGVHWVRQSPGKGLEWLGVIWSGGNTDYNTPFTSRLTISKDTSKNQVSLKLSSVTSNDTAVYYCARALTYYDYEFAYWGQGTLVTVSA
VL: EIVLTQSPVILSVSPGERVTFSCRASQSIGTNIHWYQQKTDQSPRLLIKYASESISGIPSRFSGSGSGTDFTLTINSVESEDIADYYCQQNNNWPTTFGQGTKLELKR
notes: as for B1
B13: CoDAH design C1 VH/C3 Vκ (antibody, V domains shown)
VH: QVQLQQSGPGLVKPSQTLSLTCTVSGFSLTNYGVHWVRQSPGKGLEWLGVIWSGGNTDYNTPFTSRLTISKDTSKNQVSLKLSSVTSNDTAVYYCARALTYYDYEFAYWGQGTLVTVSA
VL: DILLTQSPVILSVSPGERVTFSCRASQSIGTNIHWYQQKPDQSPKLLIKYASESISGVPSRFSGSGSGTDFTLTINSVESEDIADYYCQQNNNWPTTFGAGTKLELKR
notes: as for B1
B14: CoDAH design C1 VH/C1 Vκ (antibody, V domains shown)
VH: QVQLQQSGPGLVKPSQTLSLTCTVSGFSLTNYGVHWVRQSPGKGLEWLGVIWSGGNTDYNTPFTSRLTISKDTSKNQVSLKLSSVTSNDTAVYYCARALTYYDYEFAYWGQGTLVTVSA
VL: DIVLTQSPDFQSVTPKEKVTITCRASQSIGTNIHWYQQKPDQSPKLLIKYASESISGVPSRFSGSGSGTDFTLTINSVESEDIADYYCQQNNNWPTTFGAGTKLELKR
notes: as for B11
B15: CoDAH design C3 VH/C1 Vκ (antibody, V domains shown)
VH: QVQLQQSGPGLVKPSETLSLTCTVSGFSLTNYGVHWVRQSPGKGLEWLGVIWSGGNTDYNTPFTSRLTISVDTSKNQVSLKLSSVTSNDTAVYYCARALTYYDYEFAYWGQGTLVTVSA
VL: DIVLTQSPDFQSVTPKEKVTITCRASQSIGTNIHWYQQKPDQSPKLLIKYASESISGVPSRFSGSGSGTDFTLTINSVESEDIADYYCQQNNNWPTTFGAGTKLELKR
notes: as for B1
B16: CoDAH design C2 VH/C1 Vκ (antibody, V domains shown)
VH: QVQLQQSGPGLVKPSQTLSLTCTVSGFSLTNYGVHWVRQSPGKGLEWLGVIWSGGNTDYNTPFTSRLTISVDTSKNQVSLKLSSVTSNDTAVYYCARALTYYDYEFAYWGQGTLVTVSA
VL: DIVLTQSPDFQSVTPKEKVTITCRASQSIGTNIHWYQQKPDQSPKLLIKYASESISGVPSRFSGSGSGTDFTLTINSVESEDIADYYCQQNNNWPTTFGAGTKLELKR
notes: as for B1
B17: CoDAH design C3 VH/C3 Vκ (antibody, V domains shown)
VH: QVQLQQSGPGLVKPSETLSLTCTVSGFSLTNYGVHWVRQSPGKGLEWLGVIWSGGNTDYNTPFTSRLTISVDTSKNQVSLKLSSVTSNDTAVYYCARALTYYDYEFAYWGQGTLVTVSA
VL: DILLTQSPVILSVSPGERVTFSCRASQSIGTNIHWYQQKPDQSPKLLIKYASESISGVPSRFSGSGSGTDFTLTINSVESEDIADYYCQQNNNWPTTFGAGTKLELKR
notes: as for B11
B18: CoDAH design C3 VH/C4 Vκ (antibody, V domains shown)
VH: QVQLQQSGPGLVKPSETLSLTCTVSGFSLTNYGVHWVRQSPGKGLEWLGVIWSGGNTDYNTPFTSRLTISVDTSKNQVSLKLSSVTSNDTAVYYCARALTYYDYEFAYWGQGTLVTVSA
VL: DIVLTQSPVILSVSPGERVTFSCRASQSIGTNIHWYQQKPDQSPKLLIKYASESISGVPSRFSGSGSGTDFTLTINSVESEDIADYYCQQNNNWPTTFGQGTKLELKR
notes: as for B1
B19: CoDAH design C4 VH/C4 Vκ (antibody, V domains shown)
VH: QVQLQQSGPGLVKPSQTLSLTCTVSGFSLTNYGVHWVRQSPGKGLEWLGVIWSGGNTDYNTPFTSRLTISKDNSKSQVFFKMNSLQSNDTAVYYCARALTYYDYEFAYWGQGTLVTVSA
VL: DIVLTQSPVILSVSPGERVTFSCRASQSIGTNIHWYQQKPDQSPKLLIKYASESISGVPSRFSGSGSGTDFTLTINSVESEDIADYYCQQNNNWPTTFGQGTKLELKR
notes: as for B11
B20: CoDAH design C4 VH/C3 Vκ (antibody, V domains shown)
VH: QVQLQQSGPGLVKPSQTLSLTCTVSGFSLTNYGVHWVRQSPGKGLEWLGVIWSGGNTDYNTPFTSRLTISKDNSKSQVFFKMNSLQSNDTAVYYCARALTYYDYEFAYWGQGTLVTVSA
VL: DILLTQSPVILSVSPGERVTFSCRASQSIGTNIHWYQQKPDQSPKLLIKYASESISGVPSRFSGSGSGTDFTLTINSVESEDIADYYCQQNNNWPTTFGAGTKLELKR
notes: as for B1
B21: CoDAH design C2 VH/C3 Vκ (antibody, V domains shown)
VH: QVQLQQSGPGLVKPSQTLSLTCTVSGFSLTNYGVHWVRQSPGKGLEWLGVIWSGGNTDYNTPFTSRLTISVDTSKNQVSLKLSSVTSNDTAVYYCARALTYYDYEFAYWGQGTLVTVSA
VL: DILLTQSPVILSVSPGERVTFSCRASQSIGTNIHWYQQKPDQSPKLLIKYASESISGVPSRFSGSGSGTDFTLTINSVESEDIADYYCQQNNNWPTTFGAGTKLELKR
notes: Cross pair; Measured as full length IgG; also called C3 Vκ/C2 VH

Molecular target: T1, recombinant, soluble his tagged human EGFR (Sino Biologicals) (human, UniProt P00533 25-645)
T1 construct: extracellular domain; also called human epidermal growth factor receptor; not shown: his tag
Experiment: BLI (ForteBio Octet Red), IgG on protein A tips, 100 nM soluble EGFR;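 further: antibody binding to EGFR read out as on and off rates plus equilibrium affinity, calculated with the Octet instrument software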
Description: The EGFR binding affinities of all antibodies were estimated using biolayer interferometry on a ForteBio Octet Red instrument (ForteBio, Menlo Park, Calif., USA). […] Association and dissociation rates and equilibrium affinity were determined using software provided with the instrument.

Binder | binding result
B1 | binds
B2 | binds
B3 | binds
B4 | binds
B5 | binds
B6 | binds
B7 | binds
B8 | binds
B9 | binds
B10 | binds
B11 | binds
B12 | binds
B13 | binds
B14 | binds
B15 | binds
B16 | binds
B17 | binds
B18 | binds
B19 | binds
B20 | binds
B21 | binds
